We go through 58 substances from patent US20230038638A1, “COMPLEMENT FACTOR I-RELATED COMPOSITIONS AND METHODS” (published 2023).

Experiment [1] has as its target soluble human C3b (human) (UniProt P01024).
For the next experiment, the target named is T1, human C4b (human) (UniProt P0C0L4).
T1 sequence: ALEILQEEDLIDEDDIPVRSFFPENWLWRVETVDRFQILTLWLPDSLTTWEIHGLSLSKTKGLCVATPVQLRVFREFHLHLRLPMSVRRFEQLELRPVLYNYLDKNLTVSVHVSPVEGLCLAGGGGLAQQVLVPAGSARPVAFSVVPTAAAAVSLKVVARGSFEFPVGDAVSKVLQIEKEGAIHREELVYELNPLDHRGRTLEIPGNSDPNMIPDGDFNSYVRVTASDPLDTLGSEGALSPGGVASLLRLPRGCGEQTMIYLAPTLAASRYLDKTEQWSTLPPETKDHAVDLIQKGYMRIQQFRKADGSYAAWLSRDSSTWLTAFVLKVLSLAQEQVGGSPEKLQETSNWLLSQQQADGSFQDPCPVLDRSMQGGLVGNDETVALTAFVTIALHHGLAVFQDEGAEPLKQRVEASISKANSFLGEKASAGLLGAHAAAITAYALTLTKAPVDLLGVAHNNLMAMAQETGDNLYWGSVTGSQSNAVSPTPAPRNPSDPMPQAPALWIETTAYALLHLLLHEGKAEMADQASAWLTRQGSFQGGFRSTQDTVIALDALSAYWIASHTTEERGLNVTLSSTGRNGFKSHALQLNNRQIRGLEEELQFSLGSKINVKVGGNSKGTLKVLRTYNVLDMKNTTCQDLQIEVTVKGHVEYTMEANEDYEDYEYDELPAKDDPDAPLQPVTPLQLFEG

For the substance CFI-HSA E457G; R462K; F464Y (enzyme), in experiment [1], the iC3b Screen Ref Fold (fold of CFI-HSA wild type) amounted to 0.96. Besides, the C4b Screen Ref Fold (fold of CFI-HSA wild type) in the experiment with human C4b (human) came out at 4.82.
In the same order, the values of CFI-HSA E457G; S507A (enzyme) are -0.01 and 0.01.
In the same order, the values of “CFI-HSA E457G; S507A; GGSSGG (SEQ ID NO: 6); CCP_1-4 (enzyme)” are 0.01 and 0.12.
In the same order, the values of CFI-HSA E457G; Y408L (enzyme) are 1.39 and 4.83.
Consider CFI-HSA E461Q; F464Y (enzyme), for which, in experiment [1], the iC3b Screen Ref Fold (fold of CFI-HSA wild type) turned out to be 1.11. For the same substance, in the experiment with human C4b (human), the C4b Screen Ref Fold (fold of CFI-HSA wild type) worked out at 6.36.
The like results for CFI-HSA E461Q; R462K (enzyme) were, in that order, 1.23 and 4.69.
Turning to CFI-HSA E461Q; R462K; F464Y (enzyme), the iC3b Screen Ref Fold (fold of CFI-HSA wild type) in experiment [1] amounted to 0.59. Further, the C4b Screen Ref Fold (fold of CFI-HSA wild type) with human C4b (human) stood at 4.92.
In the same order, the values of CFI-HSA F208Y (enzyme) are 1.5 and 0.6.
On to “CFI-HSA F208Y; F246Y; F480Y; F537Y (enzyme)”, for which the iC3b Screen Ref Fold (fold of CFI-HSA wild type) in experiment [1] came out at 1.45. Also, in the experiment with human C4b (human), the C4b Screen Ref Fold (fold of CFI-HSA wild type) was found to be 0.42.
Turning to CFI-HSA F246Y (enzyme), the iC3b Screen Ref Fold (fold of CFI-HSA wild type) in experiment [1] turned out to be 1.56. In addition, the C4b Screen Ref Fold (fold of CFI-HSA wild type) in the experiment with human C4b (human) was determined as 0.48.
Consider CFI-HSA F464A (enzyme), for which the iC3b Screen Ref Fold (fold of CFI-HSA wild type) in experiment [1] came out at 0.02. Also, in the experiment with human C4b (human), the C4b Screen Ref Fold (fold of CFI-HSA wild type) was -0.01.
The like results for CFI-HSA F464H (enzyme) were, in that order, 0.23 and 0.1.
The like results for CFI-HSA F464I (enzyme) were, in that order, 0.01 and 0.09.
Consider CFI-HSA F464L (enzyme), for which the iC3b Screen Ref Fold (fold of CFI-HSA wild type) in experiment [1] was 0. In the experiment with human C4b (human), the C4b Screen Ref Fold (fold of CFI-HSA wild type) was determined as 0.15.
With CFI-HSA F464P (enzyme), in experiment [1], the iC3b Screen Ref Fold (fold of CFI-HSA wild type) was -0.01. The C4b Screen Ref Fold (fold of CFI-HSA wild type) in the experiment with human C4b (human) was 0.15.
The like results for CFI-HSA F480Y (enzyme) were, in that order, 1.14 and 1.84.
As for CFI-HSA F537Y (enzyme), the iC3b Screen Ref Fold (fold of CFI-HSA wild type) in experiment [1] came out at 1.03. Moreover, in the experiment with human C4b (human), the C4b Screen Ref Fold (fold of CFI-HSA wild type) was 1.64.
For the substance “CFI-HSA H362T; R456I; D459W; S343R (enzyme)”, the iC3b Screen Ref Fold (fold of CFI-HSA wild type) in experiment [1] is -0.04. Also, in the experiment with human C4b (human), the C4b Screen Ref Fold (fold of CFI-HSA wild type) was 0.13.
Take CFI-HSA H362T; R456I; S343K (enzyme): the iC3b Screen Ref Fold (fold of CFI-HSA wild type) in experiment [1] was 0. Besides, the C4b Screen Ref Fold (fold of CFI-HSA wild type) with human C4b (human) was found to be 0.18.
The like results for CFI-HSA H362T; R456I; S343R (enzyme) were, in that order, -0.01 and 0.08.
Take “CFI-HSA H362T; V463S; R456F; D459W; S343R (enzyme)”: the iC3b Screen Ref Fold (fold of CFI-HSA wild type) in experiment [1] was -0.01. The C4b Screen Ref Fold (fold of CFI-HSA wild type) with human C4b (human) is 0.3.
In the case of “CFI-HSA H362T; V463S; R456I; D459W; S343K (enzyme)”, the iC3b Screen Ref Fold (fold of CFI-HSA wild type) in experiment [1] is -0.02. Also, the C4b Screen Ref Fold (fold of CFI-HSA wild type) in the experiment with human C4b (human) was found to be 0.04.
In the same order, the values of “CFI-HSA H362T; V463S; R456I; D459W; S343R (enzyme)” are 0 and 0.26.
The like results for “CFI-HSA H362T; V463S; R456I; S343R (enzyme)” were, in that order, -0.02 and 0.13.
Take “CFI-HSA K14A; D425R; Y408L-N531G (enzyme)”: the iC3b Screen Ref Fold (fold of CFI-HSA wild type) in experiment [1] is 1.78. Moreover, the C4b Screen Ref Fold (fold of CFI-HSA wild type) in the experiment with human C4b (human) came to 3.94.
Regarding CFI-HSA K504D; Y408L; N531G (enzyme), the iC3b Screen Ref Fold (fold of CFI-HSA wild type) in experiment [1] was 0.07. Besides, in the experiment with human C4b (human), the C4b Screen Ref Fold (fold of CFI-HSA wild type) is 3.45.
In the same order, the values of CFI-HSA K504E; Y408L; N531G (enzyme) are 0.15 and 3.27.
On to CFI-HSA K534A (enzyme), for which the iC3b Screen Ref Fold (fold of CFI-HSA wild type) in experiment [1] was 1.31. Also, the C4b Screen Ref Fold (fold of CFI-HSA wild type) in the experiment with human C4b (human) is 1.14.
For the substance CFI-HSA K534D (enzyme), the iC3b Screen Ref Fold (fold of CFI-HSA wild type) in experiment [1] turned out to be 0.72. Also, the C4b Screen Ref Fold (fold of CFI-HSA wild type) with human C4b (human) is 2.29.
In the same order, the values of CFI-HSA K534E (enzyme) are 1.19 and 0.82.
As for CFI-HSA K534F (enzyme), the iC3b Screen Ref Fold (fold of CFI-HSA wild type) in experiment [1] came to 0.91. Further, in the experiment with human C4b (human), the C4b Screen Ref Fold (fold of CFI-HSA wild type) worked out at 0.97.
In the same order, the values of CFI-HSA K534G (enzyme) are 0.13 and 0.17.
The like results for CFI-HSA K534H (enzyme) were, in that order, 1.79 and 1.9.
On to CFI-HSA K534I (enzyme), for which the iC3b Screen Ref Fold (fold of CFI-HSA wild type) in experiment [1] was 0.83. In addition, the C4b Screen Ref Fold (fold of CFI-HSA wild type) with human C4b (human) was found to be 3.03.
For the substance CFI-HSA K534L (enzyme), in experiment [1], the iC3b Screen Ref Fold (fold of CFI-HSA wild type) turned out to be 0.87. Also, the C4b Screen Ref Fold (fold of CFI-HSA wild type) with human C4b (human) is 3.12.
With CFI-HSA K534M (enzyme), in experiment [1], the iC3b Screen Ref Fold (fold of CFI-HSA wild type) is 0.95. The C4b Screen Ref Fold (fold of CFI-HSA wild type) with human C4b (human) worked out at 3.89.
CFI-HSA K534N (enzyme): in experiment [1], the iC3b Screen Ref Fold (fold of CFI-HSA wild type) came to 0.88. In addition, the C4b Screen Ref Fold (fold of CFI-HSA wild type) in the experiment with human C4b (human) amounted to 3.36.
The like results for CFI-HSA K534P (enzyme) were, in that order, 0 and 0.11.
As to CFI-HSA K534R (enzyme), the iC3b Screen Ref Fold (fold of CFI-HSA wild type) in experiment [1] was found to be 1.44. For the same substance, the C4b Screen Ref Fold (fold of CFI-HSA wild type) with human C4b (human) stood at 1.81.
The like results for CFI-HSA K534S (enzyme) were, in that order, 0.92 and 2.65.
Consider CFI-HSA K534T (enzyme), for which the iC3b Screen Ref Fold (fold of CFI-HSA wild type) in experiment [1] was determined as 0.77. Further, the C4b Screen Ref Fold (fold of CFI-HSA wild type) with human C4b (human) is 1.44.
As for CFI-HSA K534V (enzyme), the iC3b Screen Ref Fold (fold of CFI-HSA wild type) in experiment [1] was 1.49. The C4b Screen Ref Fold (fold of CFI-HSA wild type) in the experiment with human C4b (human) was determined as 1.96.
The like results for CFI-HSA K534W (enzyme) were, in that order, 0.81 and 2.19.
The like results for CFI-HSA K534Y (enzyme) were, in that order, 1.42 and 1.39.
In the same order, the values of CFI-HSA L307A (enzyme) are 0.73 and 4.05.
In the case of CFI-HSA L307S (enzyme), the iC3b Screen Ref Fold (fold of CFI-HSA wild type) in experiment [1] stood at 1.54. In addition, the C4b Screen Ref Fold (fold of CFI-HSA wild type) with human C4b (human) was 2.94.
In the case of “CFI-HSA N531G; E457G; E461Q; R462K (enzyme)”, the iC3b Screen Ref Fold (fold of CFI-HSA wild type) in experiment [1] worked out at 1.55. Further, in the experiment with human C4b (human), the C4b Screen Ref Fold (fold of CFI-HSA wild type) is 6.67.
On to CFI-HSA N531G; E457G; F464Y (enzyme), for which, in experiment [1], the iC3b Screen Ref Fold (fold of CFI-HSA wild type) is 1.24. The C4b Screen Ref Fold (fold of CFI-HSA wild type) in the experiment with human C4b (human) was found to be 6.55.
In the same order, the values of CFI-HSA N531G; E457G; R462K (enzyme) are 1.92 and 7.02.
For the substance “CFI-HSA N531G; E457G; R462K; F464Y (enzyme)”, the iC3b Screen Ref Fold (fold of CFI-HSA wild type) in experiment [1] stood at 1.32. For the same substance, the C4b Screen Ref Fold (fold of CFI-HSA wild type) in the experiment with human C4b (human) amounted to 6.38.
The like results for CFI-HSA N531G; E461Q (enzyme) were, in that order, 1.45 and 6.13.
On to CFI-HSA N531G; E461Q; F464Y (enzyme), for which the iC3b Screen Ref Fold (fold of CFI-HSA wild type) in experiment [1] is 1.76. The C4b Screen Ref Fold (fold of CFI-HSA wild type) with human C4b (human) worked out at 6.83.
In the same order, the values of CFI-HSA N531G; E461Q; R462K (enzyme) are 2.21 and 6.42.
Turning to “CFI-HSA N531G; E461Q; R462K; F464Y (enzyme)”, the iC3b Screen Ref Fold (fold of CFI-HSA wild type) in experiment [1] amounted to 1.54. In the experiment with human C4b (human), the C4b Screen Ref Fold (fold of CFI-HSA wild type) came to 6.37.
For the substance CFI-HSA N531G; F464Y (enzyme), in experiment [1], the iC3b Screen Ref Fold (fold of CFI-HSA wild type) stood at 1.47. Besides, in the experiment with human C4b (human), the C4b Screen Ref Fold (fold of CFI-HSA wild type) was 6.48.
With CFI-HSA N531G; P535A; S507A (enzyme), the iC3b Screen Ref Fold (fold of CFI-HSA wild type) in experiment [1] was -0.02. For the same substance, the C4b Screen Ref Fold (fold of CFI-HSA wild type) in the experiment with human C4b (human) worked out at 0.26.
In the same order, the values of “CFI-HSA N531G; P535A; S507A; GGSSGG (SEQ ID NO: 6); CCP_1-4 (enzyme)” are -0.02 and 0.2.
The like results for CFI-HSA N531G; R462K (enzyme) were, in that order, 1.17 and 6.13.
